Measurements: the supplement of paper PMC9112550, “Optimization of the antimicrobial peptide Bac7 by deep mutational scanning” (BMC Biology, 2022)

Test system: Escherichia coli TOP10
Experiment: shrunken log2 fold change of peptide-encoding DNA abundance (4.5 h post-induction vs induction); higher = less antimicrobial activity (less host growth inhibition)
Settings: time post-induction: 4.5 h; library: site-saturation at positions 5, 18, 19, 20
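Also: peptides expressed intracellularly from a pBAD plasmid library in pooled LB shake-flask culture, induced with 0.3% L-arabinose, DNA abundance read by NGS, three biological replicates, DESeq2 with apeglm shrinkage.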

Sequence	shrunken log2 fold change
RRIRGRPPRLPRPRPRPFFWPRP	0.499
RRIRQRPPRLPRPRPRPKLPPRP	0.146
RRIRFRPPRLPRPRPRPQRKPRP	0.089
RRIRVRPPRLPRPRPRPTERPRP	0.302
RRIRWRPPRLPRPRPRPDEKPRP	0.0625
RRIRKRPPRLPRPRPRPTYRPRP	0.647
RRIRVRPPRLPRPRPRPMVWPRP	0.117
RRIRKRPPRLPRPRPRPIFQPRP	0.266
RRIRERPPRLPRPRPRPDTAPRP	-0.131
RRIRSRPPRLPRPRPRPQAFPRP	-0.114
RRIRYRPPRLPRPRPRPAFSPRP	0.0115
RRIRERPPRLPRPRPRPMNPPRP	-0.488
RRIRLRPPRLPRPRPRPYCIPRP	-0.121
RRIRYRPPRLPRPRPRPDICPRP	-0.0244
RRIRWRPPRLPRPRPRPFIMPRP	-0.0374
RRIRARPPRLPRPRPRPTRQPRP	0.982
RRIRTRPPRLPRPRPRPNACPRP	-0.0597
RRIRVRPPRLPRPRPRPDYKPRP	0.105
RRIRDRPPRLPRPRPRPACKPRP	0.00774
RRIRPRPPRLPRPRPRPEQRPRP	0.124
RRIRRRPPRLPRPRPRPFDCPRP	0.264
RRIRPRPPRLPRPRPRPATKPRP	0.29

Sequence	shrunken log2 fold change
RRIRERPPRLPRPRPRPQDKPRP	-0.0918
RRIRMRPPRLPRPRPRPQFCPRP	0.0736
RRIRERPPRLPRPRPRPIEYPRP	-0.207
RRIRCRPPRLPRPRPRPWYCPRP	-0.248
RRIRERPPRLPRPRPRPRLRPRP	0.25
RRIRPRPPRLPRPRPRPRYGPRP	0.00536
RRIRDRPPRLPRPRPRPNRDPRP	-0.0372
RRIRIRPPRLPRPRPRPKWAPRP	-0.105
RRIRNRPPRLPRPRPRPVPKPRP	0.883
RRIRLRPPRLPRPRPRPKLGPRP	-0.123
RRIRVRPPRLPRPRPRPGRRPRP	0.236
RRIRGRPPRLPRPRPRPNTAPRP	0.543
RRIRFRPPRLPRPRPRPELQPRP	0.348
RRIRGRPPRLPRPRPRPMLNPRP	0.477
RRIRNRPPRLPRPRPRPQKSPRP	-0.101
RRIRERPPRLPRPRPRPLKAPRP	0.225
RRIRIRPPRLPRPRPRPQGAPRP	0.0368
RRIRLRPPRLPRPRPRPFHTPRP	-0.00564
RRIRSRPPRLPRPRPRPLASPRP	0.0667
RRIRDRPPRLPRPRPRPCKNPRP	0.056
RRIRFRPPRLPRPRPRPQFVPRP	-0.434
RRIRFRPPRLPRPRPRPESVPRP	0.257

Sequence	shrunken log2 fold change
RRIRPRPPRLPRPRPRPDGNPRP	0.0274
RRIRLRPPRLPRPRPRPNVQPRP	-0.275
RRIRVRPPRLPRPRPRPGENPRP	-0.0226
RRIRQRPPRLPRPRPRPYYWPRP	0.0316
RRIRNRPPRLPRPRPRPFQHPRP	-0.00968
RRIRYRPPRLPRPRPRPDGEPRP	-0.159
RRIRGRPPRLPRPRPRPMQPPRP	1.77
RRIRSRPPRLPRPRPRPACVPRP	0.224
RRIRLRPPRLPRPRPRPDKPPRP	-0.228
RRIRNRPPRLPRPRPRPAPFPRP	-0.299
RRIRERPPRLPRPRPRPRNVPRP	-0.00139
RRIRYRPPRLPRPRPRPAQSPRP	0.256
RRIRKRPPRLPRPRPRPRTMPRP	0.179
RRIRKRPPRLPRPRPRPSLDPRP	0.183
RRIRRRPPRLPRPRPRPSAKPRP	0.0742
RRIRERPPRLPRPRPRPHCCPRP	-0.0271
RRIRHRPPRLPRPRPRPHISPRP	-0.226
RRIRERPPRLPRPRPRPCFEPRP	-0.258
RRIRGRPPRLPRPRPRPWSEPRP	0.127
RRIRERPPRLPRPRPRPDYYPRP	-0.603
RRIRHRPPRLPRPRPRPEGRPRP	-0.114
RRIRNRPPRLPRPRPRPLLHPRP	-0.135

Sequence	shrunken log2 fold change
RRIRIRPPRLPRPRPRPMDNPRP	-0.096
RRIRCRPPRLPRPRPRPRTLPRP	0.209
RRIRNRPPRLPRPRPRPSWHPRP	-0.535
RRIRCRPPRLPRPRPRPFFWPRP	0.359
RRIRCRPPRLPRPRPRPQGNPRP	-0.695
RRIRIRPPRLPRPRPRPCGSPRP	-0.0454
RRIRPRPPRLPRPRPRPNPCPRP	-0.165
RRIRIRPPRLPRPRPRPTGQPRP	0.0119
RRIRERPPRLPRPRPRPTAMPRP	0.109
RRIRGRPPRLPRPRPRPWAKPRP	-0.0167
RRIRFRPPRLPRPRPRPKQAPRP	-0.0316
RRIRMRPPRLPRPRPRPAQNPRP	1.07
RRIRGRPPRLPRPRPRPNSQPRP	0.271
RRIRCRPPRLPRPRPRPYPFPRP	-0.241
RRIRERPPRLPRPRPRPHKAPRP	-0.0142
RRIRLRPPRLPRPRPRPIRLPRP	-0.3
RRIRYRPPRLPRPRPRPVYHPRP	-0.586
RRIRCRPPRLPRPRPRPAASPRP	0.246
RRIRKRPPRLPRPRPRPCHPPRP	-0.336
RRIRLRPPRLPRPRPRPCNFPRP	-0.0369
RRIRTRPPRLPRPRPRPDRMPRP	-0.0127
RRIRIRPPRLPRPRPRPDHTPRP	-0.25

Sequence	shrunken log2 fold change
RRIRQRPPRLPRPRPRPWQCPRP	-0.1
RRIRERPPRLPRPRPRPGTEPRP	-0.049
RRIRPRPPRLPRPRPRPKHSPRP	-0.155
RRIRKRPPRLPRPRPRPHGRPRP	0.239
RRIRQRPPRLPRPRPRPCISPRP	-0.177
RRIRGRPPRLPRPRPRPTPMPRP	0.887
RRIRWRPPRLPRPRPRPQILPRP	-0.164
RRIRERPPRLPRPRPRPGHWPRP	0.0159
RRIRRRPPRLPRPRPRPIEYPRP	-0.124
RRIRSRPPRLPRPRPRPATGPRP	0.156
RRIRWRPPRLPRPRPRPAIPPRP	0.332
RRIRLRPPRLPRPRPRPMTNPRP	-0.0811
RRIRDRPPRLPRPRPRPWKDPRP	-0.0129
RRIRIRPPRLPRPRPRPKRQPRP	0.174
RRIRMRPPRLPRPRPRPYQMPRP	0.119
RRIRWRPPRLPRPRPRPEDVPRP	0.0895
RRIRDRPPRLPRPRPRPMIKPRP	-0.222
RRIRRRPPRLPRPRPRPGKSPRP	0.0256
RRIRCRPPRLPRPRPRPTWNPRP	0.128
RRIRYRPPRLPRPRPRPEFDPRP	-0.0306
RRIRHRPPRLPRPRPRPNGMPRP	-0.0133
